{"source": "paper PMC10547193", "binders": {"B1": {"name": "human KRM1-Fc (ectodomain of human KREMEN1 fused to the Fc portion of human IgG1) (Fc fusion)", "chain": "APSPGLGPECFTANGADYRGTQNWTALQGGKPCLFWNETFQHPYNTLKYPNGEGGLGEHNYCRNPDGDVSPWCYVAEHEDGVYWKYCEIPACQMPGNLGCYKDHGNPPPLTGTSKTSNKLTIQTCISFCRSQRFKFAGMESGYACFCGNNPDYWKYGEAASTECNSVCFGDHTQPCGGDGRIILFDTLVGACGGNYSAMSSVVYSPDFPDTYATGRVCYWTIRVPGASHIHFSFPLFDIRDSADMVELLDGYTHRVLARFHGRSRPPLSFNVSLDFVILYFFSDRINQAQGFAVLYQAVKEELPQERPAVNQTVAEVITEQANLSVSAARSSKVLYVITTSPSHPPQTVPG", "modifications": "biotin (EZ-Link Sulfo-NHS-LC-LC-Biotin) in the ELISA"}}, "key": {"[1]": {"molecular_target": "CVA10-WT viral particles (coxsackievirus A10 prototype strain Kowalik, mature virion) (coxsackievirus A10 (strain Kowalik))"}, "[2]": {"molecular_target": "CVA10 escape mutant N2142D+N3183Y (coxsackievirus A10 strain Kowalik with VP2 N142D and VP3 N183Y) (coxsackievirus A10 (strain Kowalik))"}, "[3]": {"molecular_target": "CVA10-N142A viral particles (coxsackievirus A10 strain Kowalik with VP2 N142A) (coxsackievirus A10 (strain Kowalik))"}}, "data": [{"binder": "B1", "values": [{"measurement": "neutralization concentration (100% protection from CPE) of KRM1-Fc against CVA10 prototype strain Kowalik in RD cells", "setting": "[1]", "result": 12.5, "unit": "nM"}, {"measurement": "change of the neutralization concentration of KRM1-Fc against the mutant relative to CVA10-WT (standard neutralization assay, RD cells)", "setting": "[2]", "result": "> 128", "unit": "times"}, {"measurement": "resistance to neutralization by KRM1-Fc relative to rescued CVA10-WT (neutralization assay, RD cells)", "setting": "[3]", "result": 64, "unit": "fold"}]}]}
